Reference: patent publication US20030235860A1, “Interactions between AR, ER, TR2, and TR4” (priority 1999, published 2003)
No end group written: not given here.

T1: ER homodimer (Homo sapiens, UniProt P03372)
T1 sequence (P03372 312-595): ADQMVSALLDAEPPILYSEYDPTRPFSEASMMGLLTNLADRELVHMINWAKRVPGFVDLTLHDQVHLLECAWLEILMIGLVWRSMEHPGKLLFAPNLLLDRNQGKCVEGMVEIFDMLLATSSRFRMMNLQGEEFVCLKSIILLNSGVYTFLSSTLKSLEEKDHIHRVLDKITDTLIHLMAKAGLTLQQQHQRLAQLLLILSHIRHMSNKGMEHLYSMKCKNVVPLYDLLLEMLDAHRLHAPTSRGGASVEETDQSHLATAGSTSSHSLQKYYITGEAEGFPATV

T2: AR (Homo sapiens, UniProt P10275, DEL79-80/DUP473-473)
T2 sequence (P10275 with tags, fused parts or gaps DEL79-80/DUP473-473): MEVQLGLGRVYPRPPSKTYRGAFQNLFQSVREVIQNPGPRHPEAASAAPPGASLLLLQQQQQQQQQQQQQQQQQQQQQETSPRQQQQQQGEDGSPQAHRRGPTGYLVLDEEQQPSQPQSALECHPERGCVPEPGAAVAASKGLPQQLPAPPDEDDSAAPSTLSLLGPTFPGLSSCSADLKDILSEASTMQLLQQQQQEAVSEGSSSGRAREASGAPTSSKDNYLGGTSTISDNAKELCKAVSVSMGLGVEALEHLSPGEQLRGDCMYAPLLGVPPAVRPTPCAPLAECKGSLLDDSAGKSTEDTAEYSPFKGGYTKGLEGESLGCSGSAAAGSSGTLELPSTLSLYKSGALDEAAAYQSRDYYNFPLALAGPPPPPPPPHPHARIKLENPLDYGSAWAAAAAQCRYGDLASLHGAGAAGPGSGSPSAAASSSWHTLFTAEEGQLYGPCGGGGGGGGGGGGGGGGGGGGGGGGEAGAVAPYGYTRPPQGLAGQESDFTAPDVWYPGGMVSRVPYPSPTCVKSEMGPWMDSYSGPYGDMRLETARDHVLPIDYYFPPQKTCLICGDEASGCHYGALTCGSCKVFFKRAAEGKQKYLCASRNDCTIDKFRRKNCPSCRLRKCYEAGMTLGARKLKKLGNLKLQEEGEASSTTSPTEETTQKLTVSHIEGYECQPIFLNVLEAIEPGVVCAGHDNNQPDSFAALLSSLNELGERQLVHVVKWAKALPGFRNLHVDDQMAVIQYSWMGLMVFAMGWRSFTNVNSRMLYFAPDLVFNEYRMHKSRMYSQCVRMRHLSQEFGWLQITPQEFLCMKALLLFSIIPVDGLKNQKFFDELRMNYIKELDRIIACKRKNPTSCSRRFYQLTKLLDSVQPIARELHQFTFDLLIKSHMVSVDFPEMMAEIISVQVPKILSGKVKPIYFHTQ

B1: TR4: human testicular orphan nuclear receptor 4, SEQ ID NO:16; expressed from plasmid or in vitro translated (protein)
chain: MTSPSPRIQIISTDSAVASPQRIQGSEPASGPLSVFTSLNKEKIVTDQQTGQKIQIVTAVDASGSPKQQFILTSPDGAGTGKVILASPETSSAKQLIFTTSDNLVPGRIQIVTDSASVERLLGKTDVQRPQVVEYCVVCGDKASGRHYGAVSCEGCKGFFKRSVRKNLTYSCRSSQDCIINKHHRNRCQFCRLKKCLEMGMKMESVQSERKPFDVQREKPSNCAASTEKIYIRKDLRSPLIATPTFVADKDGARQTGLLDPGMLVNIQQPLIREDGTVLLATDSKAETSQGALGTLANVVTSLANLSESLNNGDTSEIQPEDQSASEITRAFDTLAKALNTTDSSSSPSLADGIDTSGGGSIHVISRDQSTPIIEVEGPLLSDTHVTFKLTMPSPMPEYLNVHYICESASRLLFLSMHRARSIPAFQGLGQDCNTSLVRACWNELFTLGLAQCAQVMSLSTILAAIVNHLQNSIQEDKLSGDRIKQVMEHIWKLQEFCNSMANWDIDGYEYAYLKAIVLFSPDHPGLTSTSQIEKFQEKAQMELQDYVQKTYSEDTYRLARILVRLPALRLMSSNITEELFFTGLIGNVSIDSIIPYILKMETAEYNGQITGVSL
B2: TR2: human testicular orphan nuclear receptor 2, 603 amino acids (protein, UniProt P13056 1-603, looked up)
chain: MATIEEIAHQIIEQQMGEIVTEQQTGQKIQIVTALDHNTQGKQFILTNHDGSTPSKVILARQDSTPGKVFLTTPDAAGVNQLFFTTPDLSAQHLQLLTDNSPDQGPNKVFDLCVVCGDKASGRHYGAVTCEGCKGFFKRSIRKNLVYSCRGSKDCIINKHHRNRCQYCRLQRCIAFGMKQDSVQCERKPIEVSREKSSNCAASTEKIYIRKDLRSPLTATPTFVTDSESTRSTGLLDSGMFMNIHPSGVKTESAVLMTSDKAESCQGDLSTLANVVTSLANLGKTKDLSQNSNEMSMIESLSNDDTSLCEFQEMQTNGDVSRAFDTLAKALNPGESTACQSSVAGMEGSVHLITGDSSINYTEKEGPLLSDSHVAFRLTMPSPMPEYLNVHYIGESASRLLFLSMHWALSIPSFQALGQENSISLVKAYWNELFTLGLAQCWQVMNVATILATFVNCLHNSLQQDKMSTERRKLLMEHIFKLQEFCNSMVKLCIDGYEYAYLKAIVLFSPDHPSLENMEQIEKFQEKAYVEFQDYITKTYPDDTYRLSRLLLRLPALRLMNATITEELFFKGLIGNIRIDSVIPHILKMEPADYNSQIIGHSI
modifications: full-length
notes: human testicular orphan nuclear receptor 2, 603 amino acids

Tests used:
ER homodimer = molecular target: T1, ER homodimer; assay: ER homodimer formation, competition GST pull-down (GST-ER-LBD with [35S]-ER); conditions: for ER homodimer formation (GST-ER-LBD with [35S]-ER): Example 2, FIG. 16B
AR = molecular target: T2, AR; assay: AR-mediated transactivation reporter assay (MMTV / PSA reporters); format: cell-based; parameters: A full-length AR(pSG5AR) was co-transfected with GAL4-TR4E; expressed in transfected cells; host or cells: COS, H1299, CHO, DU145, PC-3; conditions: for Transactivation by the AR receptor: similar procedures, no details given; for Activity AR (effect of regulator on transcription activity): Table 5
Source text: Cells were routinely maintained in DMEM with 10% heat-inactivated fetal bovine serum. The cells were transfected using a modified calcium phosphate precipitation method, Mizokami, & Chang, J: Biol. Chem. 269,25655-25659 (1994), or SuperFect (Qiagen). To normalize the transfection efficiency, the (3-galactosidase expression ver and pRL-TK were co-transfected in CAT assay and in Dual-luciferase reporter assay system (Promega), respectively.
Like TR4, AR itself acts as a transcription factor to activate many androgen target genes. 500 ng of MMTV-Luc (FIG. 4A), or PSA-Luc (FIG. 4B), were co-transfected with 40 ng pCMV-AR (lane 2-3) with increasing amounts of pCMX-TR4 (as indicated in FIG. 4). […] After 16-18 hours incubation, cells were harvested for Dual-rnciferase reporter assay. As expected, in COS, H1299, and CHO cells, AR activated MMTV luciferase activity in a DHT-dependent manner (FIG. 4A, lanes 2 and 3), which could then be repressed by the addition of TR4 (lanes 6 to 8). […] Similar suppression effects also occurred when the MMTV-ruciferase reporter was replaced with the PSA-Iuciferase reporter, another AR target gene (FIG. 4B).
As GR and PR can also induce MMTV—luciferase reporter, Beato, M., Ce//56, 335-344 (1989), determining if TR4 could also repress OR- or PR-mediated transactivation was analyzed. Three μg of MMTV-Luc was co-transfected with 4 μg of pCMX-TR4 in the presence of 1 μg of pSG5AR, pSG5GR, or pSG5PR by modified calcium-phosphate method. […] Dual-luciferase reporter assays were performed. PRL-TK was used to normalize the transfection efficiency. […] Similar results were observed when the same experiments of AR-mediated transactivation were repeated in DU145 cells.
Human prostate cancer PC-3 cells were maintained in DMEM containing penicillin (25 units/ml), streptomycin ([…]), and 5% FCS. Human prostate cancer LNCaP cells were maintained in RPMI 1640 containing penicillin (25 units/ml), streptomycin ([…]), and 10% FCS. PC-3 cell were transfected using the calcium phosphate precipitation method as described previously [Mu X. M. et al. (1998) Endocrine 9:27-32], and LNCaP cells were transfected by using Superfect™ according to the manufacturer's procedures (Qiagen, Chatsworth, Calif.). CAT assay was performed as described previously [Lee Y. et al. (1999) Proc Natl Acad Sci USA 96:14724-14729], and is herein incorporated by reference at least for material related to the CAT assays].

Row | Molecule | ER homodimer formation (GST-ER-LBD with [35S]-ER) (ER homodimer) | Transactivation by the AR receptor (AR) | Activity AR (effect of regulator on transcription activity) (AR) | other results
1 | ER-#6: interaction blocker, ER fragment aa 312-340, as HA-tagged peptide, expression plasmid or cleaved peptide (ADQMVSALLDAEPPILYSEYDPTRPFSEA; also: HA tag (position not given here); UniProt P03372 312-340, looked up, fragment) | rescued |  |  | 
2 | RXR: retinoid X receptor, another member of the steroid receptor superfamily |  | suppress |  | 
3 | B1 |  |  | Down | ER-ER homodimerization (GST-ER-LBD with [35S] ER) (ER homodimer; increasing amounts of TR4, Example 3): inhibit; AR-activated MMTV luciferase activity (similar with PSA-luciferase) (AR; COS, H1299 and CHO cells, 10 nM DHT, increasing pCMX-TR4): repressed; AR-mediated MMTV-luciferase transactivation (AR; H1299 cells (similar in DU145), 4 μg pCMX-TR4, 10 nM DHT): repress
4 | B2 | interrupted | suppress | Down | MMTV-CAT and PSA-CAT activity (AR; PC-3 cells, 10 nM DHT, 2, 4 and 7 μg pCMV-TR2): strongly suppresses; AR-mediated transcription (MMTV-Luc) (AR; PC-3 cells, Example 2): suppress
